The labels stand for the following.
B1: Peptide 510 (peptide)
peptide: H[Aib]QGTFTSDVSK[αMeF]LDTK([AEEA-AEEA-γGlu-C20 diacid])RARDFVRWLL[Aib]E-OH
modifications: N-terminus assumed
SMILES: CC(C)C[C@H](NC(=O)[C@H](Cc1c[nH]c2ccccc12)NC(=O)[C@H](CCCNC(=N)N)NC(=O)[C@@H](NC(=O)[C@H](Cc1ccccc1)NC(=O)[C@H](CC(=O)O)NC(=O)[C@H](CCCNC(=N)N)NC(=O)[C@H](C)NC(=O)[C@H](CCCNC(=N)N)NC(=O)[C@H](CCCCNC(=O)COCCOCCNC(=O)COCCOCCNC(=O)CC[C@H](NC(=O)CCCCCCCCCCCCCCCCCCC(=O)O)C(=O)O)NC(=O)[C@@H](NC(=O)[C@H](CC(=O)O)NC(=O)[C@H](CC(C)C)NC(=O)[C@](C)(Cc1ccccc1)NC(=O)[C@H](CCCCN)NC(=O)[C@H](CO)NC(=O)[C@@H](NC(=O)[C@H](CC(=O)O)NC(=O)[C@H](CO)NC(=O)[C@@H](NC(=O)[C@H](Cc1ccccc1)NC(=O)[C@@H](NC(=O)CNC(=O)[C@H](CCC(N)=O)NC(=O)C(C)(C)NC(=O)[C@@H](N)Cc1c[nH]cn1)[C@@H](C)O)[C@@H](C)O)C(C)C)[C@@H](C)O)C(C)C)C(=O)N[C@@H](CC(C)C)C(=O)NC(C)(C)C(=O)N[C@@H](CCC(=O)O)C(=O)O
B2: Peptide 504 (peptide)
peptide: H[Aib]QGTFTSDVSK[αMeF]LESK([AEEA-AEEA-γGlu-C20 diacid])RAQDFVRWLLE[Aib]K-OH
modifications: N-terminus assumed
SMILES: CC(C)C[C@H](NC(=O)[C@H](Cc1c[nH]c2ccccc12)NC(=O)[C@H](CCCNC(=N)N)NC(=O)[C@@H](NC(=O)[C@H](Cc1ccccc1)NC(=O)[C@H](CC(=O)O)NC(=O)[C@H](CCC(N)=O)NC(=O)[C@H](C)NC(=O)[C@H](CCCNC(=N)N)NC(=O)[C@H](CCCCNC(=O)COCCOCCNC(=O)COCCOCCNC(=O)CC[C@H](NC(=O)CCCCCCCCCCCCCCCCCCC(=O)O)C(=O)O)NC(=O)[C@H](CO)NC(=O)[C@H](CCC(=O)O)NC(=O)[C@H](CC(C)C)NC(=O)[C@](C)(Cc1ccccc1)NC(=O)[C@H](CCCCN)NC(=O)[C@H](CO)NC(=O)[C@@H](NC(=O)[C@H](CC(=O)O)NC(=O)[C@H](CO)NC(=O)[C@@H](NC(=O)[C@H](Cc1ccccc1)NC(=O)[C@@H](NC(=O)CNC(=O)[C@H](CCC(N)=O)NC(=O)C(C)(C)NC(=O)[C@@H](N)Cc1c[nH]cn1)[C@@H](C)O)[C@@H](C)O)C(C)C)C(C)C)C(=O)N[C@@H](CC(C)C)C(=O)N[C@@H](CCC(=O)O)C(=O)NC(C)(C)C(=O)N[C@@H](CCCCN)C(=O)O
B3: Peptide 502 (peptide)
peptide: H[Aib]QGTFTSDVSK[αMeF]LDTK([AEEA-AEEA-γGlu-C20 diacid])RARDFVQWLLR[Aib]A-OH
modifications: N-terminus assumed
SMILES: CC(C)C[C@H](NC(=O)[C@H](Cc1c[nH]c2ccccc12)NC(=O)[C@H](CCC(N)=O)NC(=O)[C@@H](NC(=O)[C@H](Cc1ccccc1)NC(=O)[C@H](CC(=O)O)NC(=O)[C@H](CCCNC(=N)N)NC(=O)[C@H](C)NC(=O)[C@H](CCCNC(=N)N)NC(=O)[C@H](CCCCNC(=O)COCCOCCNC(=O)COCCOCCNC(=O)CC[C@H](NC(=O)CCCCCCCCCCCCCCCCCCC(=O)O)C(=O)O)NC(=O)[C@@H](NC(=O)[C@H](CC(=O)O)NC(=O)[C@H](CC(C)C)NC(=O)[C@](C)(Cc1ccccc1)NC(=O)[C@H](CCCCN)NC(=O)[C@H](CO)NC(=O)[C@@H](NC(=O)[C@H](CC(=O)O)NC(=O)[C@H](CO)NC(=O)[C@@H](NC(=O)[C@H](Cc1ccccc1)NC(=O)[C@@H](NC(=O)CNC(=O)[C@H](CCC(N)=O)NC(=O)C(C)(C)NC(=O)[C@@H](N)Cc1c[nH]cn1)[C@@H](C)O)[C@@H](C)O)C(C)C)[C@@H](C)O)C(C)C)C(=O)N[C@@H](CC(C)C)C(=O)N[C@@H](CCCNC(=N)N)C(=O)NC(C)(C)C(=O)N[C@@H](C)C(=O)O
B4: Peptide 505 (peptide)
peptide: H[Aib]QGTFTSDVSK[αMeF]LDTK([AEEA-AEEA-γGlu-C20 diacid])RAQDFVQWLLE[Aib]K-NH2
modifications: N-terminus assumed
SMILES: CC(C)C[C@H](NC(=O)[C@H](Cc1c[nH]c2ccccc12)NC(=O)[C@H](CCC(N)=O)NC(=O)[C@@H](NC(=O)[C@H](Cc1ccccc1)NC(=O)[C@H](CC(=O)O)NC(=O)[C@H](CCC(N)=O)NC(=O)[C@H](C)NC(=O)[C@H](CCCNC(=N)N)NC(=O)[C@H](CCCCNC(=O)COCCOCCNC(=O)COCCOCCNC(=O)CC[C@H](NC(=O)CCCCCCCCCCCCCCCCCCC(=O)O)C(=O)O)NC(=O)[C@@H](NC(=O)[C@H](CC(=O)O)NC(=O)[C@H](CC(C)C)NC(=O)[C@](C)(Cc1ccccc1)NC(=O)[C@H](CCCCN)NC(=O)[C@H](CO)NC(=O)[C@@H](NC(=O)[C@H](CC(=O)O)NC(=O)[C@H](CO)NC(=O)[C@@H](NC(=O)[C@H](Cc1ccccc1)NC(=O)[C@@H](NC(=O)CNC(=O)[C@H](CCC(N)=O)NC(=O)C(C)(C)NC(=O)[C@@H](N)Cc1c[nH]cn1)[C@@H](C)O)[C@@H](C)O)C(C)C)[C@@H](C)O)C(C)C)C(=O)N[C@@H](CC(C)C)C(=O)N[C@@H](CCC(=O)O)C(=O)NC(C)(C)C(=O)N[C@@H](CCCCN)C(N)=O
B5: Peptide 509 (peptide)
peptide: H[Aib]QGTFTSDVSK[αMeF]LESK([AEEA-AEEA-γGlu-C20 diacid])RAQDFVRWLL[Aib]TE-OH
modifications: N-terminus assumed
SMILES: CC(C)C[C@H](NC(=O)[C@H](Cc1c[nH]c2ccccc12)NC(=O)[C@H](CCCNC(=N)N)NC(=O)[C@@H](NC(=O)[C@H](Cc1ccccc1)NC(=O)[C@H](CC(=O)O)NC(=O)[C@H](CCC(N)=O)NC(=O)[C@H](C)NC(=O)[C@H](CCCNC(=N)N)NC(=O)[C@H](CCCCNC(=O)COCCOCCNC(=O)COCCOCCNC(=O)CC[C@H](NC(=O)CCCCCCCCCCCCCCCCCCC(=O)O)C(=O)O)NC(=O)[C@H](CO)NC(=O)[C@H](CCC(=O)O)NC(=O)[C@H](CC(C)C)NC(=O)[C@](C)(Cc1ccccc1)NC(=O)[C@H](CCCCN)NC(=O)[C@H](CO)NC(=O)[C@@H](NC(=O)[C@H](CC(=O)O)NC(=O)[C@H](CO)NC(=O)[C@@H](NC(=O)[C@H](Cc1ccccc1)NC(=O)[C@@H](NC(=O)CNC(=O)[C@H](CCC(N)=O)NC(=O)C(C)(C)NC(=O)[C@@H](N)Cc1c[nH]cn1)[C@@H](C)O)[C@@H](C)O)C(C)C)C(C)C)C(=O)N[C@@H](CC(C)C)C(=O)NC(C)(C)C(=O)N[C@H](C(=O)N[C@@H](CCC(=O)O)C(=O)O)[C@@H](C)O
B6: Peptide 506 (peptide)
peptide: H[Aib]QGTFTSDVSK[αMeF]LDTK([AEEA-AEEA-γGlu-C20 diacid])RARDFVAWLLE[Aib]G-OH
modifications: N-terminus assumed
SMILES: CC(C)C[C@H](NC(=O)[C@H](Cc1c[nH]c2ccccc12)NC(=O)[C@H](C)NC(=O)[C@@H](NC(=O)[C@H](Cc1ccccc1)NC(=O)[C@H](CC(=O)O)NC(=O)[C@H](CCCNC(=N)N)NC(=O)[C@H](C)NC(=O)[C@H](CCCNC(=N)N)NC(=O)[C@H](CCCCNC(=O)COCCOCCNC(=O)COCCOCCNC(=O)CC[C@H](NC(=O)CCCCCCCCCCCCCCCCCCC(=O)O)C(=O)O)NC(=O)[C@@H](NC(=O)[C@H](CC(=O)O)NC(=O)[C@H](CC(C)C)NC(=O)[C@](C)(Cc1ccccc1)NC(=O)[C@H](CCCCN)NC(=O)[C@H](CO)NC(=O)[C@@H](NC(=O)[C@H](CC(=O)O)NC(=O)[C@H](CO)NC(=O)[C@@H](NC(=O)[C@H](Cc1ccccc1)NC(=O)[C@@H](NC(=O)CNC(=O)[C@H](CCC(N)=O)NC(=O)C(C)(C)NC(=O)[C@@H](N)Cc1c[nH]cn1)[C@@H](C)O)[C@@H](C)O)C(C)C)[C@@H](C)O)C(C)C)C(=O)N[C@@H](CC(C)C)C(=O)N[C@@H](CCC(=O)O)C(=O)NC(C)(C)C(=O)NCC(=O)O
B7: Peptide 508 (peptide)
peptide: H[Aib]QGTFTSDVSK[αMeF]LESK([AEEA-AEEA-γGlu-C20 diacid])RAQDFVRWLVE[Aib]G-NH2
modifications: N-terminus assumed
SMILES: CC(C)C[C@H](NC(=O)[C@H](Cc1c[nH]c2ccccc12)NC(=O)[C@H](CCCNC(=N)N)NC(=O)[C@@H](NC(=O)[C@H](Cc1ccccc1)NC(=O)[C@H](CC(=O)O)NC(=O)[C@H](CCC(N)=O)NC(=O)[C@H](C)NC(=O)[C@H](CCCNC(=N)N)NC(=O)[C@H](CCCCNC(=O)COCCOCCNC(=O)COCCOCCNC(=O)CC[C@H](NC(=O)CCCCCCCCCCCCCCCCCCC(=O)O)C(=O)O)NC(=O)[C@H](CO)NC(=O)[C@H](CCC(=O)O)NC(=O)[C@H](CC(C)C)NC(=O)[C@](C)(Cc1ccccc1)NC(=O)[C@H](CCCCN)NC(=O)[C@H](CO)NC(=O)[C@@H](NC(=O)[C@H](CC(=O)O)NC(=O)[C@H](CO)NC(=O)[C@@H](NC(=O)[C@H](Cc1ccccc1)NC(=O)[C@@H](NC(=O)CNC(=O)[C@H](CCC(N)=O)NC(=O)C(C)(C)NC(=O)[C@@H](N)Cc1c[nH]cn1)[C@@H](C)O)[C@@H](C)O)C(C)C)C(C)C)C(=O)N[C@H](C(=O)N[C@@H](CCC(=O)O)C(=O)NC(C)(C)C(=O)NCC(N)=O)C(C)C

From patent US12630600B2 (MEDIMMUNE LIMITED, priority 2022, dated 2026) come the findings set out here.

Starred links: 1 amine or outer side, 2 acyl side, 3 side chain; linkers in the order of their positions; H or OH if unused. Non-standard residues stand in square brackets, D forms with d. Groups on a side chain read outwards from the residue. No end group written: not given here. *: point of attachment. C20 diacid = O=C(O)CCCCCCCCCCCCCCCCCCC(=O)*; γGlu = O=C(O)[C@H](CCC(=O)[*:2])N[*:1]; αMeF = C[C@](N)(Cc1ccccc1)C(=O)O; AEEA = NCCOCCOCC(=O)O; Aib = CC(C)(N)C(=O)O

One assay has as its target human GLP-1 receptor (human, UniProt P43220). Put plainly: cell-based or functional assay.
As for B1, the “cAMP production EC50” value worked out at 176 pM.
For B2, the “cAMP production EC50” value worked out at 124 pM.
Take B3: the “cAMP production EC50” value worked out at 82.1 pM.
Same read-out and setting: to B4 belongs 42.1 pM; to B5, 594 pM.
For H[Aib]QGTFTSDVSK[αMeF]LDTK([AEEA-AEEA-γGlu-C20 diacid])RARDFVAWLLE[Aib]G-NH2 [Peptide 507], the “cAMP production EC50” value came to 52.9 pM.
For the molecule B6, the “cAMP production EC50” value is 162 pM.
As to H[Aib]QGTFTSDVSK[αMeF]LDTK([AEEA-AEEA-γGlu-C20 diacid])RAQDFVRWLLE[Aib]K-OH [Peptide 503], the “cAMP production EC50” value is 81.2 pM.
Same read-out and setting: to B7 belongs 67.9 pM.

In another assay the target is human glucagon receptor (human, UniProt P47871). Put plainly: cell-based or functional assay.
Turning to B1, the “cAMP production EC50” value was 118 pM.
For the molecule B2, the “cAMP production EC50” value is 551 pM.
Still for that read-out and setting: the value for B3 was 175 pM; that for B4 was 191 pM; that for B5 was 3020 pM.
On to H[Aib]QGTFTSDVSK[αMeF]LDTK([AEEA-AEEA-γGlu-C20 diacid])RARDFVAWLLE[Aib]G-NH2 [Peptide 507], for which the “cAMP production EC50” value worked out at 86.6 pM.
On the same count and under the same terms, to B6 belongs 149 pM; to H[Aib]QGTFTSDVSK[αMeF]LDTK([AEEA-AEEA-γGlu-C20 diacid])RAQDFVRWLLE[Aib]K-OH [Peptide 503], 84.9 pM.
Same read-out and setting: to B7 belongs 2800 pM.
